Substrate in the series: Cc1cc(=O)oc2cc(NC(=O)[C@@H](CC(=O)O)NC(=O)CCC(=O)O)ccc12
Briefly: AMC fluorescence, kinetic plate-reader assay, initial rates. Type of series: biochemical, Homo sapiens. Conditions: pH 8.0, 30 °C, Tris-HCl, 150 mM NaCl.

B1: 6His-SUMO1-hLACTB (97–547) (hLACTB WT) (Homo sapiens) (protein)
chain: APPCSRCFARAIESSRDLLHRIKDEVGAPGIVVGVSVDGKEVWSEGLGYADVENRVPCKPETVMRIASISKSLTMVALAKLWEAGKLDLDIPVQHYVPEFPEKEYEGEKVSVTTRLLISHLSGIRHYEKDIKKVKEEKAYKALKMMKENVAFEQEKEGKSNEKNDFTKFKTEQENEAKCRNSKPGKKKNDFEQGELYLREKFENSIESLRLFKNDPLFFKPGSQFLYSTFGYTLLAAIVERASGCKYLDYMQKIFHDLDMLTTVQEENEPVIYNRARFYVYNKKKRLVNTPYVDNSYKWAGGGFLSTVGDLLKFGNAMLYGYQVGLFKNSNENLLPGYLKPETMVMMWTPVPNTEMSWDKEGKYAMAWGVVERKQTYGSCRKQRHYASHTGGAVGASSVLLVLPEELDTETINNKVPPRGIIVSIICNMQSVGLNSTALKIALEFDKDRSD
notes: residues 97-547 (putative catalytic domain), N-terminal 6His-SUMO1 fusion kept, expressed in Escherichia coli, Ni-NTA and size-exclusion purified
Take B1: the Km is 25.3 ± 2.7 µM and the kcat was determined as 6.02 ± 0.12 s⁻¹.

These data come from PMC12148432, “Discovery and biochemical characterization of the D-aspartyl endopeptidase activity of the serine protease LACTB [drawing 1]” (The Journal of Biological Chemistry, 2025).
